What follows are binders tested against RBD domain of the spike protein of SARS-CoV-2 virus (Acro Biosystems SPD-C52H3) (SARS-CoV-2, UniProt P0DTC2 319-537) (assay: not given).

Binder | IC50 [nM]
IMPI-029 (antibody, V domains shown) VH: EVQLVESGGGLIQPGGSLRLSCAASGVTVSSNYMNWVRQAPGKGLEWVSVIYSGGSTYYADSVKGRFTISRDNSKNTLFLQMNSLRAEDSAVYYCARDLGPYGVDVWGQGTTVTVSS VL: DIQLTQSPSFLSASVGDRVTITCWASQGISSYLAWYQQKPGKAPKLLIYAASTLQSGVPSRFSGSGSGTEFTLTISSLQPEDFATYYCQELNSYPLTFGQGTRLEIK | 1.26
IMPI-047 (antibody, V domains shown) VH: EVQLVESGGGLIQPGGSLRLSCAASGFTVSSNYMNWVRQAPGKGLEWVSVIYSGGSTYYADSVKGRFTISRDNSKNTLYLQMNSLRTEDTAVYYCARDLVAYGMDVWGQGTTVTVSS VL: DIQLTQSPSFLSASVGDRVTITCWASQGISSYLAWYQQKPGKAPKVLIYAASTLQSGVPSRFSGSGSGTEFTLTISSLQPEDFATYYCQLLNSNPLTFGGGTKVEIK | 3.36
IMPI-017 (antibody, V domains shown) VH: EVQLVESGGGLIQPGGSLRLSCAAAGLTVSSNYMNWVRQVPGKGLEWVSVIYSGGSTYYADSVKGRFTISRDNSKNTLYLQMNSLRAEDTAVYYCARDLGTLGMDVWGQGTTVTVSS VL: DIQLTQSPSFLSASVGDRVTITCWASQGISTYLAWYQQKPGKAPKLLIYAASTLQSGVPSRFSGSGSGTEFTLTISSLQPEDFATYYCQQLNSYLPTFGQGTKVEIK | 0.832
IMPI-005 (antibody, V domains shown) VH: EVQLVESGGGLIQPGGSLRLSCAASGFTVSSNYMNWVRQAPGKGLEWVSVIYSGGSTYYADSVKGRFTISRDNSKNTLFLQMNSLRAEDSAVYYCARDLGPYGVDVWGQGTTVTVSS VL: DIQLTQSPSFLSASVGDRVTITCWASQGISSYLAWYQQKPGKAPKLLIYAASTLQSGVPSRFSGSGSGTEFTLTISSLQPEDFATYYCQELNSYPLTFGQGTRLEIK | 3.18
IMPI-056 (antibody, V domains shown) VH: EVQLVESGGGLIQPGGSLRLSCAASGLTVSSNYMNWVRQAPGKKLEWVSVIYSGGSTFYADSVRGRFTISRDNSKNTLFLQMNSLRAEDSAVYYCARDLGPYGVDVWGQGTTVTVSS VL: DIQLTQSPSFLSASVGDRVTITCWASQGISSYLAWYQQKPGKAPKLLIYAASTLQSGVPSRFSGSGSGTEFTLTISSLQPEDFATYYCQQLNSYPLTFGQGTRLEIK | 1.93
IMPI-002 (antibody, V domains shown) VH: EVQLVESGGGLIQPGGSLRLSCAASGVTVSSNYMSWVRQAPGKGLEGVSVIYSGGSTYYADSVKGRFTISRDNSKNTLYLQMNSLRAEDTAVYYCARDTVVYGMDVWGQGTTVTVSS VL: DIQLTQSPSFLSASVGDRVTITCWASQGISSYLAWYQQKPGKAPKLLIYAASTLQSGVPSRFSGSGSGTEFTLTISSLQPEDFATYYCQQLNSYPLTFGGGTKVEIK | 8.15
IMPI-021 (antibody, V domains shown) VH: EVQLVESGGGLIQPGGSLRLSCAASGVTVSSNYMSWVRQAPGKGLEWVSVIYSGGSTFYADSVKGRFTISRDNSKNTLYLQMNSLRAEDTAVYYCARDLSYYGMDVWGQGTTVTVSS VL: DIQLTQSPSFLSASVGDRVTITCWASQGISSYLAWYQQKPGKAPKLLIYAASTLQSGVPSKFSGSGSGTEFTLTISSLQPEDFATYYCQQLNSYPCSFGQGTKLEIK | 4.87
IMPI-055 (antibody, V domains shown) VH: QVQLVQSGAEVKKPGASVKVSCKASGYTFTSYDINWVRQATGQGLEWMGWMNPNSGNTGYAQKFQGRVTMTRDTSINTAYMELSSLRSEDTAVYFCARGGRYCSDVTCYSGEPFDYWGQGTLVTVSS VL: EIMLTQSPDFQSVTPKEKVTITCRASQSIGSSLHWYQQKPDQSPKLLIKFASQSISGVPSRFSGSGSGTDFTLTINSLEAEDAAAYYCHQSSSLPHTFGPGTKVEIK | 3.39
IMPI-054 (antibody, V domains shown) VH: EVQLVESGGGLIQPGGSLRLSCAASGLTVSSNYMSWVRQAPGKGLEWVSIIYSGGSTYYADSVKGRFTISRDNSKNTLYLQMNSLRAEDTAVYYCARLGGYYYYGMDVWGQGTTVTVSS VL: DIQMTQSPSSLSASVGERVTITCQASQDIRNYLNWYQKKPGKAPKLLIYDSSNLETGVPSRFSGSGSGTDFTFTISSLQPEDIATYYCQQYDNLPITFGQGTRLEIK | 2.28
IMPI-042 (antibody, V domains shown) VH: EVQLVESGGGLIQPGGSLRLSCAASGLTVSSNYMSWVRQAPGKGLEWVSIIYSGGSTYYADSVKGRFTISRDNSKNTLYLQMNSLRAEDTAVYYCARLGGYYYYGMDVWGQGTTVTVSS VL: DIQMTQSPSSLSASVGERVTITCQASQDIRNYLNWYQKKPGKAPKLLIYDSSNLETGVPSRFSGGGSGTDFTFTISSLQPEDIATYYCQQYDNLPITFGQGTRLEIK | 5.54

The binders below were run against T1, RBD domain of the spike protein of SARS-CoV-2 virus (Acro Biosystems SPD-C52H3) (SARS-CoV-2, UniProt P0DTC2 319-537) (assay: Affinity (SPR) by Octet; antigen not named, taken from the epitope column).
T1 construct: domain: RBD domain

Binder | Kd [nM]
YANG-1119 (antibody, V domains shown) VH: EVQLVESGGGLVKPGGSLRLSCAASGFTFSSYSMNWVRQAPGKGLEWVSSISTGSSYIFYADSVKGRFTISRDNAKNSLYLQMNSLRAEDTAVYYCAKTGDLPFFDYWGQGTLVTVSS VL: QSALTQPASVSGSPGQSITISCTGTSSDVGRYNYVSWYQQHPGKAPKLMIYEVSNRPSGVSNRFSGSKSGNTASLTISGLQAEDEADYYCSSYTSSSTMVFGGGTKLTVL | < 0.1
YANG-1114 (antibody, V domains shown) VH: EVHLVESVGGLVKPGGSLRLSCAASGFTFSSYSMNWVRQAPGKGLEWVSSISTGSSYIFYADSVKGRFTISRDNAKNSLYLQMNSLRAEDTAVYYCAKTGDLPFFDYWGQGTLVTVSS VL: QSALTQPASVSGSPGQSITISCTGTSSDVGRYNYVSWYQQHPGKAPKLMIYEVSNRPSGVSNRFSGSKSGNTASLTISGLQAEDEADYYCSSYTSSSTMVFGGGTKLTVL | < 0.1
YANG-1115 (antibody, V domains shown) VH: EVQLVESGGGLVKPGGSLRLSCAASGFTFSSYSMNWVRQAPGKGLEWVSSISTGSSYIFYADSVKGRFTISRDNAKNSLYLQMNSLRAEDTAVYYCAKTGDLPFFDYWGQGTLVTVSS VL: QSALTQPASVSGSPGQSITISCTGTSSDVGRYNYVSWYQQHPGKAPKLMIYEVSNRPSGVSNRFSGSKSGNTASLTISGLQAEDEADYYCSSYTSSSTMVFGGGTKLSVL | < 0.1
YANG-1113 (antibody, V domains shown) VH: EVQLVESGGGLVKPGGSLRLSCAASGFTFSSYSMNWVRQAPGKGLEWVSSISTGSSYIFYADSVKGRFTMSRDNAKNSLYLQMNSLRAEDTAVYYCAKTGDLPFFDYWGQGTPVTVSS VL: QSALTQPASVSGSPGQSITISCTGTSSDVGRYNYVSWYQQHPGKAPKLMIYEVSNRPSGVSNRFSGSKSGNTASLTISGLQAEDEADYYCSSYTSSSTMVFGGGTKLTVL | < 0.1
YANG-1117 (antibody, V domains shown) VH: EVQLVESGGGLVKPGGSLRLSCAASGFTFSSYSVNWVRQAPGKGLEWVSSISTGSSYIFYADSVKGRFTISRDNAKNSLYLQMNSLRAEDTAVYYCVKTGDLPFFDYWGQGTLVTVSS VL: QSALTQPASVSGSPGQSITISCTGTRSDVGRYNYVSWYQQHPGKAPKLMIYEVTNRPSGVSNRFSGSKSGNTASLTISGLQAEDEADYYCSSYTNNSTMVFGGGTKLTVL | < 0.1
YANG-1118 (antibody, V domains shown) VH: EVQLVESGGGLVKPGGSLRLSCAASGFTFSSYALNWVRQAPGKGLEWVSSISTGSSYIFYADSVKGRFTISRDNAKHSLSLQMNSLRAEDTAVYYCAKTGDLPFFDYWGQGTLVTVSS VL: QSALTQPASVSGSPGQSITISCTGTSSDVGRYNYVSWYQQHPGKAPKLMIYEVSNRPSGVSNRFSGSKSGNTASLTISGLQAEDEADYYCISYTSSSTMVFGGGTKLTVL | < 0.1
YANG-1116 (antibody, V domains shown) VH: EVQLVESGGGLVKPGGSLRLSCEASGFNFRSYALNWVRQAPGKGLEWVSSISTGSSYIFYADSVKGRFTISRDNAKNSLSLQMNSLRAEDTAVYYCAKTGDLPFFDYWGQGTLVTVSS VL: QSALTQPASVSGSPGQSITISCTGTSSDVGRYNYVSWYQQHPGKAPKLMIYEVSNRPSGVSNRFSGSKSGNTASLTISGLQAEDEADYYCISYTSSSTMVFGGGTKLTVL | < 0.1
YANG-1109 (antibody, V domains shown) VH: EVQLVESGGGLIQPGGSLRLSCGVSGLTVSRNYMNWVRQAPGKGLEWVSVIYSGGSTFYADSVKGRFTISRDNSKNTLYLQMISLRAEDSGVYYCAREGFGMDVWGQGTTVTVSS VL: DIQLTQSPSFLSASVGDRVTITCWASQGISNYLAWYQQKPGKAPKLLIYSASTLQSGVPSRFSGSGSGTEFTLTISNLQPADIATYYCQLLNSHPCSFGQGTKLEIK | < 0.1
YANG-1111 (antibody, V domains shown) VH: EVQLVESGGGLIQPGGSLRLSCAASGFTFSSYSINWVRQAPGKGLEWVSFISGSSTTIYYADSVKGRFTISRDSAKNSLYLQMNSLRDEDTAVYYCARGLRSSIAPRPDYFDSWGQGILVTVSS VL: SYVLTQPPSVSVAPGKTARITCGGNNIGSKGVHWYQQKPGQAPVLVIYYDSDRPSGIPERFSGSNSGNTATLTISRVEAGDEADYSCQVWDSSSDHPVFGGGTKLTVQ | < 0.1
YANG-1108 (antibody, V domains shown) VH: QVQLVESGGGVVHPGRSLRLSCVVSGFTFSGYGMYWVRQAPGKGLEWVAVISKDGSDKYYADSVKGRFTISRDNSKNTLNLQMNSLRAEDTAVFYCAKERTFQGSGSYYNNYFYYGMDVWGQGTTVTVSS VL: AIQLTQSPSSLSASVGDRVTITCRASQGISSALAWYQQKPGKAPNLLIYDASSLESGVPSRFSGSGFGTDFTLTINSLQPEDFASYYCQQFKSYPLTFGGGTKVEIK | < 0.1
YANG-1110 (antibody, V domains shown) VH: QVQLAESGGGVVQPGRSLRLSCVVSGFTFSNYGMHWVRQAPGKGLEWVVFISNDGSNEDFVDSVKGRFTISRDNSKNTLYLQMNSLRAEDTAVYYCAKGGYFYGSGNYYYYYGMDVWGQGTTVTVSS VL: QPVLTQSSSASASLGSSVKLTCTLSSVHSNHIIAWHQQQPGKAPRYLMKLEGSGRYSKGSGVPDRFSGSSSEADRYLTISNLQSEDEADYYCETWDNNTYVFGSGTKVTVL | < 0.1
YANG-1112 (antibody, V domains shown) VH: QITLKESGPTLVKPTQTLTLTCTFSGFSLSTGGVAVGWIRQPPGKALEWLAIIYWDDDKRYSPSLKSRLTITKDTSKNQVVLTMTNMDPVDTATYYCAHWGKDSFDIWGQGTMVTVSS VL: SYELTQPPSVSVSPGQTARITCSGDALPRKYAYWYQQKSGQAPVLVIYEDNNRPSGIPERFSGSSSGTTATLTVSGAQVEDEADYYCYSTDTSGYVVFGGGTKLTVL | < 0.1
